Reference: a protein production outcome set (Wang et al. 2014)

Assay: label from the status in PepcDB records

| Sequence | protein production |
| --- | --- |
| MATLEITDIALVQPSHQPLSNDQTLSLSHLDNDNNLHVSFRYLRVYSSSSSTVAGESPSAVVSASLATALVHYYPLAGSLRRSASDNRFELLCSAGQSVPLVNATVNCTLESVGYLDGPDPGFVERLVPDPTREEGMVNPCILQVTMFQCGGWVLGASIHHAICDGLGASLFFNAMAELARGATKISIEPVWDRERLLGPREKPWVGAPVRDFLSLDKDFDPYGQAIGDVKRDCFFVTDDSLDQLKAQLLEKSGLNFTTFEALGAYIWRAKVRAAKTEEKENVKFVYSINIRRLMNPPLPKGYWGNGCVPMYAQIKAGELIEQPIWKTAELIKQSKSNTSDEYVRSFIDFQELHHKDGINAGTGVTGFTDWRYLGHSTIDFGWGGPVTVLPLSNKLLGSMEPCFFLPYSTDAAAGSKKDSGFKVLVNLRESAMPEFKEAMDKFHKGEFALS | failed |
| MATLTRLFIHPVKSMRGIGLTHALADVSGLAFDRIFMITEPDGTFITARQFPQMVRFTPSPVHDGLHLTAPDGSSAYVRFADFATQDAPTEVWGTHFTARIAPDAINKWLSGFFSREVQLRWVGPQMTRRVKRHNTVPLSFADGYPYLLANEASLRDLQQRCPASVKMEQFRPNLVVSGASAWEEDSWKVIRIGDVVFDVVKPCSRCIFTTVSPEKGQKHPAGEPLKTLQSFRTAQDNGDVDFGQNLIARNSGVIRVGDEVEILATAPAKIYGAAAADDTANITQQPDANVDIDWQGQAFRGNNQQVLLEQLENQGIRIPYSCRAGICGSCRVQLLEGEVTPLKKSAMGDDGTILCCSCVPKTALKLTRLEHHHHHH | failed |
| MATLYDAPVDELIDELAADLETRLDEPDWANYAKTGAGRELPPEQSDFWATRAASLLRKVAIDGPIGVKRLSEAYGSTTSGSNRYVVAPSTTTAGSRNIVRTILQQLEAEGLVEQQHDHGRVVTGDGRSLLDETAGDVIESLDRPELERYA | failed |
| MATPPFDPSLSPLKTVAVIGLGTMGTGIAEVLARAGREVVGIDISEAAAGHAVTALEASTARAVQRERLTEQERGDILARFRTFTDLQAAADADLVIEVTPESYEIKQQVLRALDGIVRADTILATGTNALSVTRLAADSAHPERVLGLHFFNPAPAMKLVEVVSSVLTAPTAVAAVTNLALDLGKEPVAVGDRPGFVADGLLFGYLNQAAAMYEAKYASREDIDAAMKLGCGLPMGPLALLDLIGVDTARTVLEAMYAESRDRLHAPAPILKQLSEAGLTGRKSGRGFYSYDEPGSATVVRDALTPLSGGPGEQGRTVRSVGVAGSGTMASGIAEVFAKAGYEVVLAARSEEKAQTAKARIGKSLSRSVDKGRLTAEAAAETLDRITPAGSYDAFADVDLALEAVAEDLEIKQQLFATFDKVCKPGAILATTTSSLPVVACARATSRPQDVIGMHFFNPAPAMKLVEVVRTVLTGDDVHATVREVCAKIRKHPVDCGDRAGFIVNALLFPYLNNAIKMVQEHYATLDDIDAAMKLGGGYPMGPFELLDVVGLDVSLAIEKVLHREFRDPGLAPAPLLEHLVAAGCLGRKTGRGFREYAKR | failed |
| MATRRTFLRGAISLTLIGSTGQLRALAHPRANTWALPIDTQAQADLTRYVDVFIGSSGHGHTFPGATLPFGMVQLSPDTDNAVWDACSGYHASNGSIMGFSHTHLSGTGIGDMLDILLMPGTGDVKLAPGPLNAPETGYRQRYDHAEEVASPGYYQVRLKDTDIVAELTATARTGLHRYHFPQHQAGHLLLDLSHAMQDNPSTPPRLRDVELSIVDTRTLLGGRRVYQWAKGRYLFFAMRLSRPFARAQLYSNDAPLTADTRQVQGVCLKAALHFPDAGEAPLLVKVGLSAVSAANALANLDAELPDFDFARVHAEAVAAWENALGRARIATDNPAQRRIFYTSLYHSLLAPTLFSDVDGRYRGMDLQVHTLPTGYHNYSTYSLWDTYRALHPLLTLVQSDRVPDLLQCLVRGAAECPDGVGIWPLQGVETGCMIGYHSAVALAEGYTKGFTGIDYAAAWPHYRKRAMQDHAHGLRYYRRLGYIPSDKVDESVSRTLEYAYDDWACAHLATAAGAHSEARVLRARSRHYRHVFNRDSGFMQPRLENGAWATPFDPRALGHLKQWHDFTECNAWQATFLNQHDVYGYMALFGGADHFAAKLDALFSALSELPPGAPPDIDGMVGQYAHGNEPSHHIAYLYVYAGQAYKTQAMVRRLLREQYHDGRDGLSGNEDCGQMSAWFVLSALGMYAVDPVSGIYVIGSPLFPYAELDVGRGRKLRILARHTSASNVYVQALRWNGSPMTRAWLRHTELAGGGTLEFEMGAQPNLDFGTHPQDLPPSFMALQPVPKHA | failed |
| MATSMTDIKGFNMISIEQEKELGNKFAVEIEKQQQPVNDPEVQRYVDKVGKRLLSGARAVEFDYVFKVVKDDSVNAFAIPGGRVYVHTGLLKAADNETELAGVLAHEINHAVARHGTRQMTQEYGYSLVLSLVLGDNPNMLAQLAGQLFGKAGMMSYSREYENQADFLGVETMYKAGYNPNGLTSFFQKLNAMDGGTQSNVARFFSTHPLTSERIQRVQAEIAKLPPQRYLTDETEFKKIKGRLKLEHHHHHH | not failed |
| MATTKRVLYVGGLAEEVDDKVLHAAFIPFGDITDIQIPLDYETEKHRGFAFVEFELAEDAAAAIDNMNESELFGRTIRVNLAKPMRIKE | not failed |
| MATVAFHTLGCKVNHYETEAIWQLFKEAGYERKEFESSADVYVINTCTVTNTGDKKSRQVIRRAIRQNPDAVICVTGCYAQTSPAEIMAIPGVDIVVGTQDREKMLGYIKQYQEERQPINGVSNIMKARVFEELDVPAFTDRTRASLKIQEGCNNFCTFCIIPWARGLLRSRDPEEVIRQAQQLVDAGYKEIVLTGIHTGGYGEDMKDYNFAQLLKELDSRVKGLKRIRISSIEASQITDEVIEVLDRSDKIVRHLHIPLQSGSNSVLKRMRRKYTMEFFADRLTKLKKALPGLAVTSDVIVGFPGETEEEFMETYNFIKEHKFSELHVFPYSKRTGTPAARMDGQVDENVKNERVHKLIALSDQLAKEYASDYEGDVLEIIPEEPFTETGEGNLLVGYTDNYIKVVFEGSEDLIGQLVKVKILKAGYPYNKGQFVRVAEDDVRENIRLSS | failed |
| MAVAGAVSGEPLVHWCTQQLRKTFGLDVSEEIIQYVLSIESAEEIREYVTDLLQGNEGKKGQFIEELITKWQKNDQELISDPLQQCFKKDEILDGQKSGDHLKRGRKKGRNRQEVPAFTEPDTTAEVKTPFDLAKAQENSNSVKKKTKFVNLYTREGQDRLAVLLPGRHPCDCLGQKHKLINNCLICGRIVCEQEGSGPCLFCGTLVCTHEEQDILQRDSNKSQKLLKKLMSGVENSGKVDISTKDLLPHQELRIKSGLEKAIKHKDKLLEFDRTSIRRTQVIDDESDYFASDSNQWLSKLERETLQKREEELRELRHASRLSKKVTIDFAGRKILEEENSLAEYHSRLDETIQAIANGTLNQPLTKLDRSSEEPLGVLVNPNMYQSPPQWVDHTGAASQKKAFRSSGFGLEFNSFQHQLRIQDQEFQEGFDGGWCLSVHQPWASLLVRGIKRVEGRSWYTPHRGRLWIAATAKKPSPQEVSELQATYRLLRGKDVEFPNDYPSGCLLGCVDLIDCLSQKQFKEQFPDISQESDSPFVFICKNPQEMVVKFPIKGNPKIWKLDSKIHQGAKKGLMKQNKAV | not failed |
| MAVEEFNQNLNEIMKFKECNITVDTCVVIDGRITELISDGTIEKCTIIVPEAVISELEAQANKGREIGYFGIEELKKLVKVAKENEMVLEYYGERPSTGEVSLAKAGEIDAMIRKVAKDTNSILFTSDRIQYNLAIAQNINAHFLKVHEEKVDLKLV | failed |
| MAVFHDEVEIEDFQYDEDSETYFYPCPCGDNFAITKEDLENGEDVATCPSCSLIIKVIYDKDQFMCGETV | not failed |
| MAVGFFAQVIDGALGMAYGITATTFLLSAGATPAAASASVHIAEVFTTGFSGISHVKLGNVNKSLFLRLLLPGMIGAVLGAVLITRFDGHQLKPFISAYLLLMGLYILSKAYRHVIKRRAPRHVAKLALFGGFVDAAGGGWGPVVTSSLIGSGSDPRTTIGSVNFAEFFLTIASATSFILLAGQPDTWKMVAGLVFGGLFAAPFAALLCKKLSPRTLLVIVGTLITLISAYNIYIGLR | failed |
| MAVLPPDPVFSLRSPDMGAVNSLCFQESDRLLAGTIKGSVFLWDLQTNRSALHFEVGSDPITSLHHTPDRLVTQEKGGTITMFSIGGSSYVKERSIPGNHLGFCRSALHTNTSKTNEQLLFYPCEESSIGVLHVTDAAAPTQILVPDDPQLPKLGSVTCFKPFECASQLFLLAGYESGHFLTWDISSSVILDVMELAQDATSVDYDPVTNRGIVGGPTDKLISFSYQRSSMQMQLGSELCIKNPGVNGVRIRPDQKVFASAGWDGRIRIFSWKSLRPLAVLTQHKNGGVMDLAFSSQQVAMWHAPIMAAAGMDGQISLWDLYN | failed |
| MAVLVTGATGFIAQWVLDCLLKENYQVIGTVRSQEKGDKLHKQFGSPSKLSFEIVKDISDTEAFEPLFKKRGKEIDIVLHMASPCHFNTSDYEKDLLIPALNGTKGVLNAIKKYGDVKKVVVTSSYAAITDMVNSADGSLVFTEKDWNPATWERCQTDAVNAYCASKKFAEQAAWEFSKETGVSLTTINPVFVFGPQKFDEDVTSQLNTSNEIINGLIHSKPGDKLEPDYHSAYVDVRDVARAHLVAFQKDTTGERLGLSNGAFNCQSILDILNEKFPQLDITKGPEPGMGDTKPGAVFDNRHSKEVLAFPFISLEQCVYDTVAQVLKKEGRLLEHHHHHH | not failed |
| MAVMARHESYYGNTKPAKLNEEKVTRVRFYLHDTLSGQNPTAVRIAHANLTGGSASPVGFGSLFVIDDPLTVGPEKHSKEIGNGQGMYVSGCKDLSKFTIVMYADLAFTAGKFNGSSISIFSRNPVAEEVGEREIAIVGGRGKFRMARGFVKVKTNKIDMKTGDAVLRYDATVYHY | failed |
| MAVRGVSLRQPYPREPRGWHQEWSLRRAMRMARAAYWESYSATATDFWMSAEFTSLYDADTPDDSVPLAPARDHDLTDSHAILQAHYAACWTEGRPFAVETKLIKPDGRLLDCVVHGEPEFDANGQVQRVFGIVRDATPETSALRQLAVSEQRLADFVSTASDWCWESGPDHRLLPYPKSLDGNAALQTVASGGKARWELAYAPDEEGSMALHRDDMEAHRPFRDFIYTSIGNDGSRIIISTSGKPIFADDGTFLGYRGTASDITQLAAARTLLDQRTGALEEAHRLGRIGTWTHRLDTGRTVWSPELYQLLGLEPDAFEPTYEGTEPYFLDDDAARLLKIQKRVLRTSTTEATDIRILHTDGTPRDLAIICKAEISNGNVIGLIGTAQDVTDRKEAERRLEQLAYTDPLTGLANRALYKRKLADLFENPMAEHGQNALYLIDLDRFKEVNDSLGHSTGDSLLIHVAGVLRQELGPQAFIARIGGDEFAVLTNSPNTSVEATTALADRLIAKLSVPVELAEGEACIGATIGIAILPEHGATAEKASRNADLALYMAKEAGRGRAQLFEPMYAEAVDQKLDLGRRLRHAVDSGGLNTHYQPQIDLKTGRVIGFEALLRWSHPERGPISPAEFIPIAETTGLIVDLGHWVLRDACKQMRGWLDAGLPARTISVNVSPAQIWNGDFEKVVATVLADTGLPPELLCLELTENLFVDHTKQKVSTTLAALSKLGIQLALDDFGSGYSSLGYLTRLPFNRLKIDRSFVDGIATVPEKRKLLGGIIALSHGLGMSVVAEGAELQAEVDLLAAFDCDFVQGYAFSKPVAADQAAVVAAEIERKPGR | failed |
| MAVRVCCHAPPGVSNHLFTFCAGNLTTGFSGGSVTSQKGGAAGLPTCSRRCPRGCLPGSDPLPRHPRRYAPPVTPPVTPPTTPAPRSRARMLELVFPKDTNYHGTAFGGWVLALMDKAASVAAVRHAGGNVVTARMDGVDFHVPIRVGDAVALDARVIRVGRSSMTIRVDVYRENMASGEQQLATGGLFTFVALGEDGKPRPVPPLPEGSTDSEQPDYEARPLEHHHHHH | failed |
| MAVSPDDPLILVGRVAGGFGVRGEVRITTYTEDPLSIAGFKALKRQDGSPALTIASARKTKDGVVCRCPGVETKEAADALRGLRLYVPRSALPEPDDDEFYLTDLVGLTVRHIQTDQLLGRVKSVQNFGAGDILEITPDLGGPTWYLPFTRAAVPEVRVSEGLILADPPALVGDHEGPEEKGLDENEELGDRDLEHHHHHH | failed |
